Data set [1] deals with DDD of the RII form of PKA (Homo sapiens, UniProt P13861). Conditions: cited from earlier work.
A further data set addresses RIIα dimers (Homo sapiens, UniProt P13861). Conditions: read-out: Affinity / binding constant; cited from earlier work.
The subject of another data set is PKA. Conditions: cited from earlier work.
The next data set has as its target RII isoform of PKA (Homo sapiens, UniProt P13861). Conditions: cited from earlier work.
In data set [2] the test system is LS174 human colon cancer cell line. Briefly: ^111In IMP 453 biodistribution in scLS174T tumor-bearing nude mice, with or without TF2 pretargeting. The format is in vivo. Conditions: for Tissue uptake, Kidney / Tissue uptake, Tumor: 3 Hr. The source says: (§1) The higher uptake in the kidneys of pretargeted mice is probably due the presence of bispecific antibody in the blood or kidney. […] In the absence of TF2, there was little uptake of labeled peptide into the tumor (Table 5).

Experiment in data set [3]: as above
The format is in vivo. Conditions: nude, mouse.
Excerpt: as §1

Another data set relates to LS174T tumors. As to the kind of experiment: Effect of ^213Bi-IMP288 on growth of TF2-pretargeted LS174T tumors. The format is in vivo, nude mice. Particulars: single injection; 5 nmol TF2 then 0.28 nmol ^213Bi-IMP288. How it is done:
FIG. 5. Growth curves of subcutaneous LS174T xenografts in nude mice. Mice were injected with 5 nmol TF2 bispecific antibody, followed by a single injection of 0.28 nmol ^213Bi-IMP288 or PBS.
(§2) IMP288 was labeled with ^213Bi and in vitro binding characteristics (IC50, Kd, internalization) were compared with those of ^177Lu-IMP288. Tumor targeting of ^213Bi-IMP288 was studied in mice with s.c. LS174T xenografts that were pretargeted with TF2 bispecific antibody. Finally, the effect of ^213Bi-IMP288 (2.5-14 MBq) on the growth of LS174T tumors was assessed.

For a further data set, the system named is s.c. LS174T xenografts. Briefly: in vivo. Details: species or system mice. Conditions: mouse. Here is the method:
as §2

Another data set in a line: in vivo. Details: species or system mice. Particulars: mouse. Here is the method:
as §2

For data set [4], the system named is human colorectal adenocarcinoma xenografts (LS 174T). Briefly: Pretargeting study with ^125I-TF2 and ^99mTc-IMP-245 in mice bearing s.c. LS 174T xenografts. The format is in vivo, female athymic nude mice. Particulars: pretargeted with TF2. Here is the method: A pretargeting study was performed with TF2 in female athymic nude mice bearing s.c. human colorectal adenocarcinoma xenografts (LS 174T). Cells were expanded in tissue culture until enough cells had been grown to inject 55 mice s.c. with 1×10^7 cells per mouse. After one week, tumors were measured and mice assigned to groups of 5 mice per time-point. The mean tumor size at the start of this study was 0.105±0.068 cm^3. Twenty mice were injected with 80 μg ^125I-TF2 (500 pmoles, 2 μCi) and 16 h later administered ^99mTc-IMP-245 (40 μCi, 92 ng, 50 pmoles). The mice were sacrificed and necropsied at 0.5, 1, 4, and 24 h post-peptide injection. In addition, 3 mice of the 24 h time-point groups were imaged on a γ-camera at 1, 4, and 24 h post-injection. As a control, 3 additional mice received only ^99mTc-IMP-245 (no pretargeting) and were imaged at 1, 4, and 24 h post-injection, before being necropsied after the 24 h imaging session. Tumor as well as various tissues were removed and placed in a γ-counter to determine % ID/g in tissue at each time-point.

The target in another data set is TF2 (human). As to the kind of experiment: in vitro binding assay, format and partner not described; TF2 (anti-CEA x anti-HSG) is the pretargeting antibody of the example.
[5] abbreviates: blood, pretargeted with TF2, read-out: Tissue uptake, Blood.
Setting [6] is: kidney, pretargeted with TF2, read-out: Tissue uptake, Kidney.
Setting [7] is: large intestine, pretargeted with TF2, read-out: Tissue uptake, Lg. Int.
The mark [8] stands for this setting: liver, pretargeted with TF2, read-out: Tissue uptake, Liver.
Setting [9] is: lung, pretargeted with TF2, read-out: Tissue uptake, Lung.
Setting [10] is: small intestine, pretargeted with TF2, read-out: Tissue uptake, Sm. Int.
Where [11] appears, read: spleen, pretargeted with TF2, read-out: Tissue uptake, Spleen.
Setting [12] is: stomach, pretargeted with TF2, read-out: Tissue uptake, Stomach.
The mark [13] stands for this setting: tumor, pretargeted with TF2, read-out: Tissue uptake, Tumor.

Like-named read-outs stand apart in the source and are kept apart here. Numbered stars: 1 amine (or outer) side, 2 acyl side, 3 side chain; on linkers, the order of the positions; unused ones are H or OH. Square brackets hold non-standard residues; d marks the D form. Side chains are listed from the residue outwards. Ends that are not written are not given here. Peptide text beside a SMILES is read from it. * marks the point of attachment. X1 = CCc1c2c(nc3ccc(O)cc13)-c1cc3c(c(=O)n1C2)COC(=O)[C@@]3(CC)OC(=O)*; DOTA = O=C(O)CN1CCN(CC(=O)O)CCN(CC(=O)*)CCN(CC(=O)O)CC1; NH(2-(imidazol-4-yl)ethyl) = c1ncc(CCN*)[nH]1; Suc = O=C(CCC(=O)[*:2])[*:1]

Sequence of DDD of the RII form of PKA (P13861 whole entry): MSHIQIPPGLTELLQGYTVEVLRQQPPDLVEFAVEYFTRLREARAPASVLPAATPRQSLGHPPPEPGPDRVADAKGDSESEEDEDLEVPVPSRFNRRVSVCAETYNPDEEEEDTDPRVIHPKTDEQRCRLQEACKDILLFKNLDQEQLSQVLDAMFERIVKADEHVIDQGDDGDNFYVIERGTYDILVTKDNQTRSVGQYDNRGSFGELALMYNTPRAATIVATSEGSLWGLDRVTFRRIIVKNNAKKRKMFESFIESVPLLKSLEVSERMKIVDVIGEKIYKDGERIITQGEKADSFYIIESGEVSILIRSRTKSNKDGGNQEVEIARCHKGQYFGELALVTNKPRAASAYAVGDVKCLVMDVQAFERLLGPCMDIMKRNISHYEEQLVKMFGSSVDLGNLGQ
Sequence of TF2 (human) (heavy, as listed by the source, chain 1 of 2): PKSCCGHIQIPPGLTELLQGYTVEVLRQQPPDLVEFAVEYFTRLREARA
Sequence of TF2 (human) (heavy, as listed by the source, chain 2 of 2): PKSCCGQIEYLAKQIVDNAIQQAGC
Sequence of RIIα dimers (P13861 whole entry): as the sequence (P13861 whole entry) above
Sequence of RII isoform of PKA (P13861 whole entry, canonical isoform): as the sequence (P13861 whole entry) above

For the molecule “PEDAELVRLSKRDVENAVLKAVQQY [AKAP7δ-L308D-pep]”, in [1], the “Affinity for the RII DDD sequence” value is “particularly high affinities”.

Consider QIEYLAKQIVDNAIQQA [AKAP-IS], for which the “Affinity for the RII DDD sequence” value in data set [1] was “particularly high affinities”. Also, at RIIα dimers, the Kd was 0.4 nM.

In the case of FEELAWKIAKMIWSDVFQQC [PV-38], in the data set with PKA, the PKA isoform preference result is “higher affinity for RI”.

LEQYANQLADQIIKEATE [RIAD]: the PKA isoform preference entry in the data set on PKA is listed as “higher affinity for RI”.

As for “PEDAELVRTSKRLVENAVLKAVQQY [AKAP7δ-L304T-pep]”, the “Affinity for the RII DDD sequence” value in data set [1] is given as “particularly high affinities”.

Turning to DLIEEAASRIVDAVIEQVKAAGAY [Ht-31], the PKA isoform preference entry in the data set on PKA is reported as “greater affinity for the RII isoform”.

Regarding QIEYVAKQIVDYAIHQA [SuperAKAP-IS], the “Selectivity for the RII isoform of PKA compared with the RI isoform” value with RII isoform of PKA is on record as “five order of magnitude higher”.

The tissue uptake is the share of the injected amount in each gram of the tissue. `CCc1c2c(nc3ccc(O)cc13)-c1cc3c(c(=O)n1C2)COC(=O)[C@@]3(CC)OC(=O)SC[C@@H](NC(=O)CN1CCN(CC(=O)O)CCN(CC(=O)O)CCN(CC(=O)O)CC1)C(=O)N[C@H](C)C(=O)N[C@H](CCCCNC(=O)CNC(=O)CCC(=O)NCCc1cnc[nH]1)C(=O)N[C@H](Cc1ccc(O)cc1)C(=O)N[C@H](CCCCNC(=O)CNC(=O)CCC(=O)NCCc1cnc[nH]1)C(N)=O` [^111In IMP 453, metal not drawn] ({DOTA}-[dC](X1)[dA][dK]([Gly-Suc-NH(2-(imidazol-4-yl)ethyl)])[dY][dK]([Gly-Suc-NH(2-(imidazol-4-yl)ethyl)])-NH2): the “Tissue uptake, Kidney” value in data set [2] (pretargeted with TF2) worked out at 21 % ID/g; in [2] (without bsMAb) it was 9.97 % ID/g. Also, the “Tissue uptake, Tumor” value was 28 % ID/g in [2] (pretargeted with TF2) and “little uptake” in data set [2] (without bsMAb). In [2] (by 24 hr, pretargeted with TF2), the “Initial kidney uptake eliminated” value worked out at 50%. In data set [2] (pretargeted with TF2), the Route of clearance entry is on record as “Most of the peptide was cleared by urinary excretion”. In addition, the tissue uptake at 3 h came to 0.29 ± 0.03 %ID/g in data set [3] (setting [5]); 0.24 ± 0.01 %ID/g in data set [3] (blood, without bsMAb, read-out: Tissue uptake, Blood); 21.1 ± 4.14 %ID/g in [3] (setting [6]); 9.97 ± 0.94 %ID/g in data set [3] (kidney, without bsMAb, read-out: Tissue uptake, Kidney); 1.23 ± 1.41 %ID/g in [3] (setting [7]); 0.52 ± 0.27 %ID/g in data set [3] (large intestine, without bsMAb, read-out: Tissue uptake, Lg. Int.). For the same molecule, the tissue uptake at 3 h in data set [3] (setting [8]) was 0.56 ± 0.08 %ID/g; in [3] (liver, without bsMAb, read-out: Tissue uptake, Liver) it was 0.37 ± 0.18 %ID/g; in data set [3] (setting [9]), 0.56 ± 0.1 %ID/g; in data set [3] (lung, without bsMAb, read-out: Tissue uptake, Lung) it was 0.31 ± 0.14 %ID/g; in data set [3] (setting [10]), 0.68 ± 0.45 %ID/g; in data set [3] (small intestine, without bsMAb, read-out: Tissue uptake, Sm. Int.) it was 0.2 ± 0.1 %ID/g. The tissue uptake at 3 h stood at 0.37 ± 0.11 %ID/g in data set [3] (setting [11]); 0.22 ± 0.07 %ID/g in data set [3] (spleen, without bsMAb, read-out: Tissue uptake, Spleen); 0.41 ± 0.33 %ID/g in data set [3] (setting [12]); 0.11 ± 0.06 %ID/g in [3] (stomach, without bsMAb, read-out: Tissue uptake, Stomach); 28.3 ± 4.03 %ID/g in data set [3] (setting [13]); 0.37 ± 0.09 %ID/g in data set [3] (tumor, without bsMAb, read-out: Tissue uptake, Tumor). In addition, the tissue uptake at 24 h in [3] (setting [5]) was determined as 0.09 ± 0.04 %ID/g; in data set [3] (setting [6]), 10 ± 2.45 %ID/g; in [3] (setting [7]), 0.23 ± 0.05 %ID/g; in [3] (setting [8]) it was 0.53 ± 0.19 %ID/g; in [3] (setting [9]), 0.18 ± 0.07 %ID/g; in [3] (setting [10]), 0.22 ± 0.09 %ID/g. In addition, the tissue uptake at 24 h was 0.66 ± 0.89 %ID/g in data set [3] (setting [11]), 0.2 ± 0.12 %ID/g in data set [3] (setting [12]) and 15.4 ± 1.18 %ID/g in [3] (setting [13]). For the same molecule, the tissue uptake at 48 h in data set [3] (setting [5]) was 0.04 ± 0.01 %ID/g; in data set [3] (setting [6]), 7.11 ± 1.17 %ID/g; in data set [3] (setting [7]) it was 0.16 ± 0.07 %ID/g; in data set [3] (setting [8]), 0.36 ± 0.06 %ID/g; in data set [3] (setting [9]), 0.14 ± 0.03 %ID/g; in data set [3] (setting [10]), 0.12 ± 0.03 %ID/g. The tissue uptake at 48 h was 0.25 ± 0.07 %ID/g in [3] (setting [11]), 0.07 ± 0.01 %ID/g in data set [3] (setting [12]) and 9.69 ± 1.97 %ID/g in data set [3] (setting [13]).

With `NC(=O)[C@@H](CCCCNC(=O)CNC(=O)CCC(=O)NCCc1c[nH]cn1)NC(=O)[C@@H](CCC(=O)O)NC(=O)[C@@H](CCCCNC(=O)CNC(=O)CCC(=O)NCCc1c[nH]cn1)NC(=O)[C@@H](Cc1ccc(O)cc1)NC(=O)CN1CCN(CC(=O)O)CCN(CC(=O)O)CCN(CC(=O)O)CC1` [^213Bi-IMP288, metal not drawn] ({DOTA}-[dY][dK]([Gly-Suc-NH(2-(imidazol-4-yl)ethyl)])[dE][dK]([Gly-Suc-NH(2-(imidazol-4-yl)ethyl)])-NH2), the Tumor growth result in the data set with LS174T tumors was “significantly inhibited”. In addition, the “Tumor targeting relative to ^177Lu-IMP288” value with s.c. LS174T xenografts is given as “comparable”. In addition, the tissue uptake at 0.25 h in “in vivo” is 9.3 ± 2 %ID/g.

Consider “IMP-245: di-HSG-based peptide effector labeled with ^99mTc (FKYKK; not fully specified; also: labelled with 99mTc)”, for which the Tumor uptake is given as 22±3 % ID/g in data set [4] (0.5 h post-peptide injection), 30±14 % ID/g in data set [4] (1 h post-peptide injection), 25±4 % ID/g in data set [4] (4 h post-peptide injection) and 16±3 % ID/g in data set [4] (24 h post-peptide injection).

Regarding IMP288 (peptide), the IQ with TF2 (human) came out at 0.8 nM.

For “PEDAELVRLSKRLVENAVLKAVQQY [AKAP7δ-wt-pep]”, the “Affinity for the RII DDD sequence” value in data set [1] was “particularly high affinities”.
